Reference: the Human Domainome abundance scans (Beltran et al. 2025)
± gives the uncertainty stated by the source.

B1: Histone-lysine N-methyltransferase SETD2, residues 2382 to 2430; numbered along this chain, Q9BYW2 (parent)
chain: SPPKPKTIVLPPNWKTARDPEGKIYYYHVITRQTQWDPPTWESPGDDAS

Variants of: B1
Assay: abundance fitness (aPCA) (normalised: wild type 0, dead -1); higher = more abundant; growth selection in yeast, the domain comes from the species named
Conditions: Homo sapiens

Abundance fitness of substitutions, site by site:
P5: V 0.162 ± 0.034 | G 0.118 ± 0.033 | I 0.077 ± 0.035 | K 0.159 ± 0.092 | D 0.133 ± 0.082 | R -0.006 ± 0.035 | Y -0.066 ± 0.098 | S 0.163 ± 0.044 | E 0.057 ± 0.035 | N 0.294 ± 0.046 | Q 0.007 ± 0.085
K4: S 0.007 ± 0.037 | G -0.97 ± 0.074 | E -0.908 ± 0.12 | D -0.927 ± 0.14 | N -0.144 ± 0.091 | H -0.221 ± 0.059 | V -0.573 ± 0.086 | I -0.154 ± 0.074 | C -0.564 ± 0.13 | L -0.293 ± 0.034 | M -0.051 ± 0.076 | F -0.41 ± 0.12 | Q -0.541 ± 0.13 | A -0.836 ± 0.058 | R -0.532 ± 0.057 | Y -0.046 ± 0.086 | W -0.798 ± 0.081 | T -0.275 ± 0.057 | P -0.386 ± 0.1
P12: M -0.007 ± 0.036 | T 0.092 ± 0.062 | I -0.451 ± 0.16 | E 0.105 ± 0.084 | W -0.309 ± 0.062 | A 0.153 ± 0.048 | F -0.402 ± 0.13 | S -0.195 ± 0.08 | R 0.009 ± 0.045 | K 0.048 ± 0.073 | G -0.398 ± 0.039 | H -0.528 ± 0.21 | Q -0.238 ± 0.09 | C -0.844 ± 0.23 | D -0.013 ± 0.076
T7: V -0.148 ± 0.057 | S 0.105 ± 0.039 | P -0.375 ± 0.066 | W -0.462 ± 0.095 | C -0.062 ± 0.037 | L -0.214 ± 0.035 | D -0.134 ± 0.079 | F 0.278 ± 0.094 | Q 0.013 ± 0.089 | E -0.045 ± 0.048 | I -0.212 ± 0.15 | H 0.116 ± 0.12 | R 0.094 ± 0.045 | G 0.138 ± 0.033 | Y -0.155 ± 0.15 | A 0.028 ± 0.031 | M 0.026 ± 0.035 | N 0.127 ± 0.099
P2: R -0.118 ± 0.062 | G 0.045 ± 0.035 | M 0.026 ± 0.1 | E -0.224 ± 0.082 | F 0.031 ± 0.14 | L 0.317 ± 0.065 | W -0.293 ± 0.094 | S 0.237 ± 0.058 | Y 0.539 ± 0.1 | N 0.461 ± 0.098 | H 0.314 ± 0.17 | A 0.131 ± 0.068 | V -0.065 ± 0.051 | T 0.178 ± 0.034 | Q -0.007 ± 0.033 | K -0.087 ± 0.054 | I 0.712 ± 0.1
N13: C -0.292 ± 0.056 | A -0.581 ± 0.067
P11: C -0.694 ± 0.11 | L -0.279 ± 0.054 | T -0.682 ± 0.13 | Y -0.666 ± 0.18 | W -0.811 ± 0.12 | Q -0.186 ± 0.084 | K -0.281 ± 0.055 | V -0.689 ± 0.11 | M -0.374 ± 0.049 | F -0.43 ± 0.064 | I -0.84 ± 0.39 | A -0.388 ± 0.069 | N -0.371 ± 0.076 | D -0.156 ± 0.06 | E -0.5 ± 0.069 | S -0.453 ± 0.11
K6: W -0.393 ± 0.097 | P -0.35 ± 0.1 | A -0.032 ± 0.05 | R -0.046 ± 0.032 | Y -0.227 ± 0.1 | L -0.339 ± 0.041 | M 0.018 ± 0.048 | E -0.19 ± 0.062 | D -0.074 ± 0.14 | G 0.037 ± 0.053 | N 0.018 ± 0.085 | Q 0.07 ± 0.034 | T -0.148 ± 0.073 | S 0.103 ± 0.059 | F -0.121 ± 0.05 | I -0.037 ± 0.077 | C -0.303 ± 0.091
L10: G -0.564 ± 0.035 | V -0.242 ± 0.042 | A -0.759 ± 0.072 | C -0.191 ± 0.059 | D -0.489 ± 0.15 | Q -0.529 ± 0.32 | R -0.647 ± 0.06 | N -0.46 ± 0.15 | S -0.684 ± 0.046 | Y -0.249 ± 0.12 | I -0.026 ± 0.12 | H -0.255 ± 0.1 | F -0.142 ± 0.1 | T -0.431 ± 0.11 | M -0.314 ± 0.1 | K -0.553 ± 0.2
I8: A -0.1 ± 0.058 | F -0.021 ± 0.086 | Y -0.108 ± 0.092 | M 0.179 ± 0.096 | T 0.021 ± 0.034 | Q -0.056 ± 0.065 | R 0.06 ± 0.04 | P -0.282 ± 0.098 | E -0.096 ± 0.062 | C 0.105 ± 0.067 | V 0.201 ± 0.038 | L 0.165 ± 0.035 | G 0.037 ± 0.041 | D -0.164 ± 0.095 | W 0.001 ± 0.032 | N 0.112 ± 0.075 | K 0.03 ± 0.034
V9: I 0.132 ± 0.075 | Y -0.362 ± 0.14 | G -0.167 ± 0.037 | C 0.084 ± 0.09 | W -0.24 ± 0.07 | S -0.093 ± 0.056 | P -0.538 ± 0.15 | T 0.123 ± 0.033 | R 0.025 ± 0.044 | F 0.049 ± 0.086 | M 0.228 ± 0.08 | D 0.486 ± 0.089 | H -0.068 ± 0.095 | N 0.21 ± 0.11 | K 0.022 ± 0.042 | Q -0.097 ± 0.054 | A -0.187 ± 0.045 | L -0.075 ± 0.046 | E -0.255 ± 0.09
